“And” between values parts separate entries of the source, which are not always exact repeats. Equal entries are not always repeated. Where two headings read alike, the source gives them in different places.

What all share (assay): SPR
Assay [1] addresses T1, Tissue factor (TF) extracellular domain (human, UniProt P13726).
T1 chain: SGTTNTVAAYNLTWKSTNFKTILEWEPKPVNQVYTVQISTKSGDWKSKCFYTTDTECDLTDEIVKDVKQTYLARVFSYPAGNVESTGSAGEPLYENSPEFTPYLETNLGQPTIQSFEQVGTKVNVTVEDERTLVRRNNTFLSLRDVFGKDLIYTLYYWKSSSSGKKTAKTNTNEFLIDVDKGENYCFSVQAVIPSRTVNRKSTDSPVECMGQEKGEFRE

Assay [2] has as its target T1, Tissue factor (TF) extracellular domain.
The target is the same in assay [3].
Assay [4] has the same target.

B1: D3H44 WT Fab (antibody)
chain 1: EVQLVESGGGLVQPGGSLRLSCAASGFNIKEYYMHWVRQAPGKGLEWVGLIDPEQGNTIYDPKFQDRATISADNSKNTAYLQMNSLRAEDTAVYYCAR
chain 2: DIQMTQSPSSLSASVGDRVTITCRASRDIKSYLNWYQQKPGKAPKVLIYYATSLAEGVPSRFSGSGSGTDYTLTISSLQPEDFATYYCLQHG
As to B1, the Kd is 0.052 nM in assay [1]; 0.056 nM in assay [2]; 0.0522 nM and 0.0622 nM in assay [3]; 0.06 nM in assay [4].

Values taken from US11286293.
